Reference: patent publication US20210137940A1 (AstraZeneca / MedImmune, published 2021)

B1: HAKA-A (ADC of J415RHA+J415RKA anti-PSMA antibody conjugated to drug linker A) (antibody, V domains shown)
VH: EVQLVESGGGLVQPGGSLKLSCAASGFTFSNYWMNWVRQASGKGLEWVGEIRSQSNNFATHYAESVKGRFTISRDDSKNTAYLQMNSLKTEDTAVYYCTRRWNNFWGQGTTVTVSS
VL: DIQMTQSPSSVSASVGDRVTITCKASENVGTYVSWYQQKPGTAPKLLIYGASNRFTGVPSRFSGSGSATDFTLTINNLQPEDFATYYCGQSYTFPYTFGQGTKVEIK
modifications: PBD drug linker A conjugated to reduced cysteine thiols (positions not stated); measured DAR 1.17 per antibody
B2: HAKB-A (ADC of J415RHA+J415RKB anti-PSMA antibody conjugated to drug linker A) (antibody, V domains shown)
VH: B1 VH
VL: B1 VL
modifications: PBD drug linker A conjugated to reduced cysteine thiols (positions not stated); measured DAR 1.86 per antibody

Molecular target: Prostate-Specific Membrane Antigen (PSMA), as expressed on LNCaP cells (human, UniProt Q04609 1-750)
Sequence (Q04609 whole entry): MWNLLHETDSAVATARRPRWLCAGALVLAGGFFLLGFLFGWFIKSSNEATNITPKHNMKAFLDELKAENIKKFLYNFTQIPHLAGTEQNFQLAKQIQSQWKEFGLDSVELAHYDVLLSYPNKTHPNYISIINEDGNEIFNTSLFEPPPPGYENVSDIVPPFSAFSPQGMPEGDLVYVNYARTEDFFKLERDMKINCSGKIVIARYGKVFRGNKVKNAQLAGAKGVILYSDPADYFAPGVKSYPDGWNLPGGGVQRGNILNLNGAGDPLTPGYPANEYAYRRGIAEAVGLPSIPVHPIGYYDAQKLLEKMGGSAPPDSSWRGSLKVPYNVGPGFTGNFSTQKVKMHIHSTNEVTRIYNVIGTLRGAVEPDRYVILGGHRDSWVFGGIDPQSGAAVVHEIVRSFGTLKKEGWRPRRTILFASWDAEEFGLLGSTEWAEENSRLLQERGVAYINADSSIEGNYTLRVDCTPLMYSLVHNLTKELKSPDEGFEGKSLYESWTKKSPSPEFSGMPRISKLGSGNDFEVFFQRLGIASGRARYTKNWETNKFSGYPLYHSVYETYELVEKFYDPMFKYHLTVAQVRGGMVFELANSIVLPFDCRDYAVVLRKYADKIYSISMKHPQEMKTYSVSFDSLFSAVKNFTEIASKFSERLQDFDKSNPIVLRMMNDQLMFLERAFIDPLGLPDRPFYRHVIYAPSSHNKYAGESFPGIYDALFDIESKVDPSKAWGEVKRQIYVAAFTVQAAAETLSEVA
Test: cell-based or functional assay

Row | Binder | EC50 (µg/mL), in vitro cytotoxicity on LNCaP cells (Alamar Blue cell survival, 4-day incubation) [µg/mL]
1 | B1 | 0.00186
2 | B2 | 0.00163
